Values of other authors in publication PMC12608911.
Read-outs that look alike come from different tables or passages of the source.

How the values were obtained:
[1] = target: TREM-1 (Mus musculus) (UniProt Q9JKE2)
[2] = target: TREM-1 (Mus musculus) (UniProt Q9JKE2); remark: listed apart in the source
[3] = target: TREM-1 (Homo sapiens) (UniProt Q9NP99)
Target sequence in this assay (Q9NP99 21-234): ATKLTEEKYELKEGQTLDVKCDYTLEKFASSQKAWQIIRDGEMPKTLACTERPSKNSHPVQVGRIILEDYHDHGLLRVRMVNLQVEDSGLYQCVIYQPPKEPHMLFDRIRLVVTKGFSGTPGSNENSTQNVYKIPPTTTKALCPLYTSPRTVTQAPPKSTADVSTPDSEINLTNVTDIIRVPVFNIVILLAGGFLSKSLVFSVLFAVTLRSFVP

[4] = target: TREM-1 (Homo sapiens) (UniProt Q9NP99); remark: listed apart in the source
Target sequence in this assay (Q9NP99 21-205): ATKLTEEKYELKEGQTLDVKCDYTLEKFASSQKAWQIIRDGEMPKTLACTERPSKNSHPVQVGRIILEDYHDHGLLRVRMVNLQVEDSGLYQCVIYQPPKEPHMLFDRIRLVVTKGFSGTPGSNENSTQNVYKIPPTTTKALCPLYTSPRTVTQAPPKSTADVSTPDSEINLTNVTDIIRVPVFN

[5] = target: TREM-1 (Homo sapiens) (UniProt Q9NP99); remark: listed apart in the source
Target sequence in this assay (Q9NP99 21-205): as above

[6] = target: TREM-1 (Homo sapiens) (UniProt Q9NP99); remark: listed apart in the source
Target sequence in this assay (Q9NP99 21-205): as above

[7] = target: TREM-1 (Mus musculus) (UniProt Q9JKE2); remark: listed apart in the source

Sequence of TREM-1 (Mus musculus) (Q9JKE2 21-230): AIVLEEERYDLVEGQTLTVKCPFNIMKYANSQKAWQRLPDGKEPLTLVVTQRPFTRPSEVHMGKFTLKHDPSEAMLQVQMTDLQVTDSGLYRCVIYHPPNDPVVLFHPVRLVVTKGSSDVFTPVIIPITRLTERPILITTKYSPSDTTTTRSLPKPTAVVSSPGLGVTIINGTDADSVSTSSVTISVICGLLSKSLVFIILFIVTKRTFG
Sequence of eCIRP (P60824 whole entry): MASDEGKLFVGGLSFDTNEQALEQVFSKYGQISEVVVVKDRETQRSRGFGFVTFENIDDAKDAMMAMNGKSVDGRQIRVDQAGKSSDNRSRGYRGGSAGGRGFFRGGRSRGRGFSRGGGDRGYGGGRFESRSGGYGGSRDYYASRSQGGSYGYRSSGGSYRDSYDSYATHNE
Sequence of CIRP (P60824 whole entry): as above
Sequence of HMGB1 (P63158 whole entry): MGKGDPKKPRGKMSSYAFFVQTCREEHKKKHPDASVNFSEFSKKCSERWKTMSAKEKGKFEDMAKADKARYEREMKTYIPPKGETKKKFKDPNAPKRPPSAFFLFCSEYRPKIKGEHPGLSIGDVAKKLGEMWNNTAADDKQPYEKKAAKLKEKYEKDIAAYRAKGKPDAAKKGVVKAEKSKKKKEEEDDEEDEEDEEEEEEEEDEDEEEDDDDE
Sequence of PGLYRP1 peptide N15 (O75594 22-196): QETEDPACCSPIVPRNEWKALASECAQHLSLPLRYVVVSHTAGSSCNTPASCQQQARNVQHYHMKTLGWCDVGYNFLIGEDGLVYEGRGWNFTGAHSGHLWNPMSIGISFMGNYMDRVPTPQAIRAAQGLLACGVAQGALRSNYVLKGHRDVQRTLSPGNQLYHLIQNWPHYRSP
Sequence of PGLYRP1 peptide 17 (O75594 22-196): as above
Sequence of PGLYRP1 peptide N9 (O75594 22-196): as above
Sequence of HSP70 N7 peptide (P0DMV8 2-641): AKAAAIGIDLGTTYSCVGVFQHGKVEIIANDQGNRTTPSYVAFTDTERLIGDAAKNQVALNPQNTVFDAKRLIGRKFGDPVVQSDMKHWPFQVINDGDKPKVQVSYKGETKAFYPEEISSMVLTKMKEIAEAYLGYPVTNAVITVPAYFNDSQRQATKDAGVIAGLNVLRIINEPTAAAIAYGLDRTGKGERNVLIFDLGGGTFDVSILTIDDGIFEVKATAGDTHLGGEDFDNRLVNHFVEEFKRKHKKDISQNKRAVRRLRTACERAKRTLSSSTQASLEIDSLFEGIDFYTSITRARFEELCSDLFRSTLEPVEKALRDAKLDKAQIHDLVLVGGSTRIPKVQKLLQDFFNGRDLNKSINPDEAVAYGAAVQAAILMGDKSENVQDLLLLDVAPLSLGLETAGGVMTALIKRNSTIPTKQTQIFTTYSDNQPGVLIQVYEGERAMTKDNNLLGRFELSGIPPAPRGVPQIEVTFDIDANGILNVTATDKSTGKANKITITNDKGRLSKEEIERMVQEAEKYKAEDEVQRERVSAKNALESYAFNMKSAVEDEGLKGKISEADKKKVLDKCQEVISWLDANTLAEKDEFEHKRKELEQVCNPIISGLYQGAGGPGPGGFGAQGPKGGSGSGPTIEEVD

## CIRP (from UniProt P60824)
[1]
  Kd: 120 nM

## HMGB1 (from UniProt P63158)
[2]
  Kd: 35.4 µM

## HSP70 N7 peptide (from UniProt P0DMV8)
[3]
  Kd: 1.6 nM

## PGLYRP1 peptide 17 (from UniProt O75594)
[4]
  Kd: 1.3 nM

## PGLYRP1 peptide N9 (from UniProt O75594)
[5]
  Kd: 9.7 nM

## PGLYRP1 peptide N15 (from UniProt O75594)
[6]
  Kd: 7.4 nM

## eCIRP (from UniProt P60824)
[7]
  Kd: 117 nM
